Data: publication PMC7393995

Molecular target: CD162 (P-selectin glycoprotein ligand-1), mouse, on MLL-AF9 AML blasts (mouse (endogenous in murine MLL-AF9 AML blasts)) (UniProt Q62170)
Experiment: flow cytometry on cells; E-selectin–IgM supernatant precomplexed with AF647 anti-human IgM F(ab)2, added to KIT+-enriched BM cells from leukemic mice (WT or Selplg-/- MLL-AF9 AML), 30 min on ice; gated on GFP+ KIT+ blasts; control: empty-vector IgM

Sequence of UniProt Q62170 (Q62170 42-397): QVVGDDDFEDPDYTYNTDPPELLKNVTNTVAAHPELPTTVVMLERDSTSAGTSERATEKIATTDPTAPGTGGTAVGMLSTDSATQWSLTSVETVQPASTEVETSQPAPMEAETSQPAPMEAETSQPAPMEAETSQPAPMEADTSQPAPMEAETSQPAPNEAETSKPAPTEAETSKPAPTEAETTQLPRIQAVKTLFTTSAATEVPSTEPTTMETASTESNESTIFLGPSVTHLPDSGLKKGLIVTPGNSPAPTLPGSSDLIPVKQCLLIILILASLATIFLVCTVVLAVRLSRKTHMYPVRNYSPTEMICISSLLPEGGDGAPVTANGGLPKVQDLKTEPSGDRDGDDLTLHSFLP

## recombinant E-selectin–human-IgM fusion protein (from UniProt P16581 22-610)
  percent of gated AML blasts that bound E-selectin–IgM: 65%
